From patent US20130078247A1 (Boehringer Ingelheim, published 2013)

Columns and labels:
[1] = target: recombinant human DLL4 extracellular domain, C-terminally His-tagged (R&D Systems) (human, UniProt Q9NR61 25-522, biotinylated in the competition assays (sites not given)); assay: cell-based or functional assay
[2] = target: T1, human DLL4, full length, overexpressed on CHO or HEK293 cells (human, UniProt Q9NR61 27-685); assay: cell-based or functional assay
[3] = target: T1, human DLL4, full length, overexpressed …; assay: periplasmic extract; FMAT, Notch1/Fc on CHO-hDLL4
Excerpt: (§1) All calculations are based on the FL1_total signal which comprises the average of the fluorescence per well times the number of counts per well.

[4] = target: T2, mouse DLL4, full length, overexpressed on CHO or HEK293 cells (mouse, UniProt Q9JI71 27-686); assay: periplasmic extract; FMAT, Notch1/Fc on CHO-mDLL4
T2 construct: whole, on cells; also called CHO-mDLL4; CHO-mDII4
Excerpt: as §1

recombinant human DLL4 [5] = target: T3, recombinant human DLL4 (human, UniProt Q9NR61 25-522); assay: cell-based or functional assay
human DLL1 = target: T4, human DLL1 (human, UniProt O00548 18-545, limits assumed); assay: binding ELISA, coated hDLL1
T4 construct: also called hDLL1; rhDLL1
T4 sequence (looked up): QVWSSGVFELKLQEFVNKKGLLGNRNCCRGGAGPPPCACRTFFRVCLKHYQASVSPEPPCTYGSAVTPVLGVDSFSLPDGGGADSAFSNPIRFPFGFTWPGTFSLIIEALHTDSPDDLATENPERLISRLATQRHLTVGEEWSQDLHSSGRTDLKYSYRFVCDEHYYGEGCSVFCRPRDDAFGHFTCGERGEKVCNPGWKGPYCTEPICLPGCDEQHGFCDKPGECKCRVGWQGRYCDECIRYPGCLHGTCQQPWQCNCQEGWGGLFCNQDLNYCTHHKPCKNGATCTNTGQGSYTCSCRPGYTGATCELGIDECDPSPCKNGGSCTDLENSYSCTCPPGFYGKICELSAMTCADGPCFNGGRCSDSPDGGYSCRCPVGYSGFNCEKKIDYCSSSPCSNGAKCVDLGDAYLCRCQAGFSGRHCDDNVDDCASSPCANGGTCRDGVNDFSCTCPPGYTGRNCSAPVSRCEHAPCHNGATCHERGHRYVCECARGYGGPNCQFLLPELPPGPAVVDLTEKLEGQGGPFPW
Description: (§2) Absence of binding to homologous ligands human DLL1 and human Jagged-1 is assessed via solid phase binding assay (ELISA). In brief, human DLL1 (Alexis, San Diego, Calif., USA) and human Jagged-1 (Alexis, San Diego, Calif., USA) are coated overnight at 4° C. at 1 μg/mL in a 96-well MaxiSorp plate (Nunc, Wiesbaden, Germany). Wells are blocked with a casein solution (1% in PBS). VHHs are applied as dilution series and binding is detected using a mouse anti-myc (Roche) and an anti-mouse-AP conjugate (Sigma, St. Louis, Mo., USA).

human Jagged-1 = target: T5, human Jagged-1 (human, UniProt P78504 34-1067, limits assumed); assay: binding ELISA, coated hJagged-1
T5 construct: also called hJag-1; hJAG1
Description: as §2

[6] = target: T6, recombinant human Jagged-1 (Alexis) (human, UniProt P78504 34-1067, limits assumed); assay: rhDLL1/rhJAG1 binding ELISA
T6 construct: also called hJagged-1; hJAG1

[7] = target: T7, recombinant human DLL1 (Alexis) (human, UniProt O00548 18-545, limits assumed); assay: rhDLL1/rhJAG1 binding ELISA
T7 construct: also called hDLL1; rhDLL1
T7 sequence (looked up): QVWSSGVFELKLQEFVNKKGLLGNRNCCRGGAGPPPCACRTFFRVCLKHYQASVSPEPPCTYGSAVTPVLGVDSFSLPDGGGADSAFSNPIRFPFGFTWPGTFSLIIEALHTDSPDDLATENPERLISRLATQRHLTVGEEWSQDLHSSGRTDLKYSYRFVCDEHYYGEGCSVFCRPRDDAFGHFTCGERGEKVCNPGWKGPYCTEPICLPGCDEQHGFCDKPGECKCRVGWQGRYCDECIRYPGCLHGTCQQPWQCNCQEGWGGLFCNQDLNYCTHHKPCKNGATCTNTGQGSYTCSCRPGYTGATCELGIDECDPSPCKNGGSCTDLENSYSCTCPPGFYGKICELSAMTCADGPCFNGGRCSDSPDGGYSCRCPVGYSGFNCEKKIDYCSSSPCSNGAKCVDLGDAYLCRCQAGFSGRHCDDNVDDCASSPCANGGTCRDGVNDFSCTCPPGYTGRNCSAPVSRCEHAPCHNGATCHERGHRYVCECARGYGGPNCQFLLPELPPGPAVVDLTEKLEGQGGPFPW

recombinant human DLL4 [8] = target: T3, recombinant human DLL4; assay: ProteOn off-rate screen, periplasmic extract, hDLL4 on chip
Description: (§3) In a first cycle, amino acid substitutions are introduced randomly in both framework (FW) and complementary determining regions (CDR) using the error-prone PCR method. […] After a polish step, PCR products are inserted via unique restriction sites into a vector designed to facilitate phage display of the VHH library. […] No selections on murine DLL4 are included as (conservation of) cross-reactivity is assessed at the screening level. Individual mutants are produced as recombinant protein using an expression vector derived from pUC119, which contains the LacZ promoter, a resistance gene for ampicillin, a multiple cloning site and an ompA leader sequence (pAX50). E. coli TG1 cells are transformed with the expression vector library and plated on agar plates (LB+Amp+2% glucose). Single colonies are picked from the agar plates and grown in 1 mL 96-deep-well plates. VHH expression is induced by adding IPTG (1 mM). Periplasmic extracts (in a volume of ˜80 uL) are prepared according to standard methods and screened for binding to recombinant human and mouse DII4 in a ProteOn (BioRad, Hercules, Calif., USA) off-rate assay. […] Periplasmic extract of affinity matured clones is diluted 1/10 and injected across the “analyte channels” A1-A6. An average off-rate is calculated of the wild type clones present in the plate and served as a reference to calculate off-rate improvements.

recombinant mouse DLL4 = target: T8, recombinant mouse DLL4 (mouse, UniProt Q9JI71 27-532); assay: ProteOn off-rate screen, periplasmic extract, mDLL4 on chip
T8 construct: extracellular domain; also called rmDLL4; mDLL4; not shown: C-terminal His tag
Description: as §3

T8 sequence (Q9JI71 27-532): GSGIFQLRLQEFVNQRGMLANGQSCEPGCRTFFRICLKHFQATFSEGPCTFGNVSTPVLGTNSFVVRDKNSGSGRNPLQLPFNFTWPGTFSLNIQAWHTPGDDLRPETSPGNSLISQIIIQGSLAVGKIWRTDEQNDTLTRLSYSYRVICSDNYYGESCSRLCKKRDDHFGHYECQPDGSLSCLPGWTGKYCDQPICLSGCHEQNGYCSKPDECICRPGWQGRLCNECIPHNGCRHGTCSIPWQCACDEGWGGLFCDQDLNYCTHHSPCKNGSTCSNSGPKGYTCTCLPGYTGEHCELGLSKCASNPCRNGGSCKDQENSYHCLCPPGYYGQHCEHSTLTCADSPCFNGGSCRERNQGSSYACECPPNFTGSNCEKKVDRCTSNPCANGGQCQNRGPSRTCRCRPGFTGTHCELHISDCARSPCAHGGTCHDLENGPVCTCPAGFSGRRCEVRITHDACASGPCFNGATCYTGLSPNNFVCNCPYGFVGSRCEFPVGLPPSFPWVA
T2 sequence (Q9JI71 27-686): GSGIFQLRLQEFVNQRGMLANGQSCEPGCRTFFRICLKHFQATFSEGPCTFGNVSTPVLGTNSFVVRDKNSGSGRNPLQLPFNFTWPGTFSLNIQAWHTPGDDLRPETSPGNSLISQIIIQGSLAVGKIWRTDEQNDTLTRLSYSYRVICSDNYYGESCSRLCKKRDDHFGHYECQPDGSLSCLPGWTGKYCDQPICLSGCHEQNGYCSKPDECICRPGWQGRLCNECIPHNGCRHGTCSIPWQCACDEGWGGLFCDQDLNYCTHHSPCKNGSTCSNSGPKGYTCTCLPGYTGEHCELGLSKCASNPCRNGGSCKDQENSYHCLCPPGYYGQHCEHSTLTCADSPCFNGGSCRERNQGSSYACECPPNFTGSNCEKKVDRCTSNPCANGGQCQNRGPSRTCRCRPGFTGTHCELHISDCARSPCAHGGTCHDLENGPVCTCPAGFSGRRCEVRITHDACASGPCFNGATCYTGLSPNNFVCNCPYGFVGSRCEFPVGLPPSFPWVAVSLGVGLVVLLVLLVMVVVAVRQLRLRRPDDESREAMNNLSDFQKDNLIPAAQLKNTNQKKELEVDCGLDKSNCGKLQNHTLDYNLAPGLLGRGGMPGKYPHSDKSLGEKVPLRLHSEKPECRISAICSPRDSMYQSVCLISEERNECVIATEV

B1: DLLBII104G01 (VHH)
VHH: EVQLVESGGGLVQAGGSLRLSCAASGFTFDDYAIGWFRQAPGKEREGVSCISSSDGSTYYADSVKGRFTISSDNAKNTVYLQMNSLKPEDTAVYYCATAWCDSSWYRSFVGYWGQGTQVTVSS
notes: also called 104G1; DLLBII104G1; not shown: C-terminal c-myc and His6 tags
For B1, the “concentration giving complete inhibition, HUVEC proliferation assay” value [1] was 10 µM, the “IC50, DLL4/Notch1 reporter assay (luciferase; co-culture with HEK293-hDII4)” value (“IC50, DLL4/Notch1 reporter assay” for short) [2] was 964 nM and the “% inhibition” value [3] was 94%. For the same binder, the “% inhibition” value [4] was 86%.

B2: DLLBII62C11 (VHH)
VHH: EVQLMESGGGLVQPGGSLRLSCVAAGFTFSNYYMSWVRQAPGKGLEWVSVISPDGSNTYYADTVKGRFTISRGNAKNTLFLQMTGLKSEDAAVYYCARGSGSWGVHGQGTQVTVSS
notes: not shown: C-terminal c-myc and His6 tags
With B2 the “IC50, DLL4/Notch1 reporter assay” value [2] was 4660 nM, the “% inhibition” value [3] was 74% and the “% inhibition” value [4] was 71%.

B3: DLLBII96C03 (VHH)
VHH: EVQLVESGGGLVQPGGSLRLSCAASGFTFGNYDMSWVRQAPGKGPEWVSAINSGGGDTYYADSVKGRFTISRDNAKNTLYLQMNSLKPEDTAVYYCATPRGWGPTGPHEYGYWGQGTQVTVSS
notes: also called 96CO3; 96C3; not shown: C-terminal c-myc and His6 tags
With B3 the “IC50, DLL4/Notch1 reporter assay” value [2] was 5160 nM, the “% inhibition” value [3] was 75% and the “% inhibition” value [4] was 83%.

B4: DLLBII56A09 (VHH, not shown: small tags and cut ends)
VHH: EVQLVESGGGLVQPGGSLRLSCAASGFTFDDYAIGWFRQAPGKEPEGISCISSSGGITYYADSVKGRFTTSRDNAKNTVYLQMNSLKPEDTAVYYCATPGIAACRGIHYTGQGTQVTVSS
For B4, the “IC50 (nM) in the DLL4 proliferation assay (HUVEC, experiment 1)” value (shortened to “IC50 (nM) … (HUVEC, experiment 1)”) (recombinant human DLL4 [5]) was 11 nM and the “IC50 (nM) in the DLL4 proliferation assay (HUVEC, experiment 2)” value (recombinant human DLL4 [5]) was 6.8 nM.

B5: DLLBII115A05 (VHH)
VHH: EVQLVESGGGLVQPGGSLRLSCAASGFTFGSYDMSWVRRSPGKGPEWVSSINSGGGSTYYADFVKGRFTISRDNAKNTLYLQMNSLKPEDTAVYYCAADRYIRARQGDYWGAYEYDYWGQGTQVTVSS
notes: also called 115A5; DLLBII115A5; not shown: C-terminal c-myc and His6 tags
B5 was tested, and the “concentration giving complete inhibition, HUVEC proliferation assay” value [1] was 10 µM, the “IC50, DLL4/Notch1 reporter assay” value [2] was 1740 nM and the “% inhibition” value [3] was 74%. For the same binder, the “% inhibition” value [4] was 84%.

B6: DLLBII133A09 (VHH)
VHH: EVQLVESGGGLVQPGGSLRLSCAASGFTFGSYDMSWVRRSPGKGPEWVSAINSGGGSTYYADYVKGRFTISRDNAKNTLYLQMNSLKPEDTAVYYCAADRYIWARQGEYWGAYAYDYWGQGTQVTVSS
notes: not shown: C-terminal c-myc tag and (His)6 tag
B6: no binding (human DLL1); no binding (human Jagged-1).

B7: DLLBII115A05 (VHH)
VHH: EVQLVESGGGLVQPGGSLRLSCAASGFTFGSYDMSWVRRSPGKGPEWVSSINSGGGSTYYADFVKGRFTISRDNAKNTLYLQMNSLKPEDTAVYYCAADRYIRARQGDYWGAYEYDYWGQGTQVTVSS
notes: also called 115A5; DLLBII115A5; not shown: C-terminal c-myc tag and His6 tag
In the case of B7, the “IC50 (nM) … (HUVEC, experiment 1)” value (recombinant human DLL4 [5]) is reported as 10000 nM, the binding result (human DLL1) is reported as “no binding” and the binding result (human Jagged-1) is reported as “no binding”.

B8: DLLBII015 (VHH)
VHH: EVQLVESGGGLVQPGGSLRLSCAASGFTIGSYDMSWVRRSPGKGPEWVSAINSGGGSTYYADYVKGRFTISRDNAKNTLYLQMNSLKPEDTAVYYCAADRYIWARQGEYWGAYAYDYWGQGTQVTVSS
notes: as for B2
B8: no binding [6]; no binding [7].

B9: DLLBII136C07 (VHH)
VHH: EVQLVESGGGLVQPGGSLRLSCAASGFTFGSYDMSWVRRSPGKGPEWVSSINSGGGSTYYADYVKGRFTISRDNAKNTLYLQMNSLKPEDTAVYYCAADRYIWARQGEYWGAYEYDYWGQGTQVTVSS
notes: as for B2
B9: no binding [6]; no binding [7].

B10: DLLBII129D08 (VHH)
VHH: EVQLVESGGGLVQAGGSLRLSCAASGRTFSSYAMAWYRQAPGKEREYVAAIRWSGGTAYYADSVQGRFTISRDNAKNTVYLQMNSLKPEDTAVYYCANRAPDTRLEPYLYDYWGQGTQVTVSS
notes: as for B2
B10: no binding [6]; no binding [7].

B11: DLLBII129D08 (VHH)
VHH: EVQLVESGGGLVQAGGSLRLSCAASGRTFSSYAMAWYRQAPGKEREYVAAIRWSGGTAYYADSVQGRFTISRDNAKNTVYLQMNSLKPEDTAVYYCANRAPDTRLEPYLYDYWGQGTQVTVSS
notes: as for B6
With B11 the binding result (human DLL1) was “no binding”, the binding result (human Jagged-1) was “no binding” and the “fold (off-rate improvement over DLLBII101G08)” value (shortened to “fold”) (recombinant human DLL4 [8]) was 38 fold. For the same binder, the “fold” value (recombinant mouse DLL4) was 35 fold.

B12: DLLBII101G08 (VHH)
VHH: EVQLVESGGGLVQAGGSLRLSCAASGRTFSSYAMAWFRQAPGKEREFVAAIRWSGGTAYYADSVQGRFTISRDNAKNTVYLQMNSLKPEDTAVYYCANRAADTRLGPYEYDYWGQGTQVTVSS
notes: also called 101G8; DLLBII101G8; not shown: C-terminal c-myc tag and His6 tag
In the case of B12, the “IC50 (nM) … (HUVEC, experiment 1)” value (recombinant human DLL4 [5]) is reported as 401 nM, the “IC50 (nM) in the DLL4 proliferation assay (HUVEC, experiment 2)” value (recombinant human DLL4 [5]) is reported as 112 nM and the binding result (human DLL1) is reported as “no binding”. The binding result (human Jagged-1) was “no binding”, the “fold” value (recombinant human DLL4 [8]) was 1 fold and the “fold” value (recombinant mouse DLL4) was 1 fold.

B13: DLLBII129B05 (VHH)
VHH: EVQLVESGGGLVQAGGSLRLSCAASGRTFSSYAMAWYRQAPGKEREYVAAIRWSGGTAYYADSVQGRFTISRDNAKNTVYLQMNSLKPEDTAVYYCANRAPDTRLAPYEYDHWGQGTQVTVSS
notes: as for B2
B13: no binding [6]; no binding [7].

B14: DLLBII129E11 (VHH)
VHH: EVQLVESGGGLVQAGGSLRLSCAASGRTFSSYAMAWYRQAPGKEREYVAAIRWSGGTAYYADSVQGRFTISRDNAKNTVYLQMNSLKPEDTAVYYCANRAPDTRLRPYLYDYWGQGTQVTVSS
notes: as for B2
B14: no binding [6]; no binding [7].

B15: DLLBII129E11 (VHH)
VHH: EVQLVESGGGLVQAGGSLRLSCAASGRTFSSYAMAWYRQAPGKEREYVAAIRWSGGTAYYADSVQGRFTISRDNAKNTVYLQMNSLKPEDTAVYYCANRAPDTRLRPYLYDYWGQGTQVTVSS
notes: as for B6
For B15, the binding result (human DLL1) was “no binding”, the binding result (human Jagged-1) was “no binding” and the “fold” value (recombinant human DLL4 [8]) was 28 fold. The “fold” value (recombinant mouse DLL4) was 26 fold.

B16: DLLBII129B05 (VHH)
VHH: EVQLVESGGGLVQAGGSLRLSCAASGRTFSSYAMAWYRQAPGKEREYVAAIRWSGGTAYYADSVQGRFTISRDNAKNTVYLQMNSLKPEDTAVYYCANRAPDTRLAPYEYDHWGQGTQVTVSS
notes: as for B6
With B16 the binding result (human DLL1) was “no binding”, the binding result (human Jagged-1) was “no binding” and the “fold” value (recombinant human DLL4 [8]) was 24 fold. The “fold” value (recombinant mouse DLL4) was 20 fold.
